According to patent US20190002511A1 (NATIONAL UNIVERSITY OF SINGAPORE, published 2019):
Where two headings read alike, the source gives them in different places. Square brackets hold non-standard residues; d marks the D form. Ends that are not written are not given here. β3hR = N=C(N)NCCC[C@H](N)CC(=O)O

Legend:
[1] = molecular target: T1, human α-thrombin (recombinant) (human, UniProt P00734 328-363; P00734 364-622); experiment: thrombin amidolytic assay with S2238, Morrison tight-binding fit, competitive
[2] = molecular target: fXIIa; experiment: cell-based or functional assay
[3] = molecular target: APC; experiment: cell-based or functional assay
[4] = molecular target: T1, human α-thrombin (recombinant); experiment: cell-based or functional assay
[5] = molecular target: kallikrein; experiment: cell-based or functional assay
[6] = molecular target: fXIa; experiment: cell-based or functional assay
[7] = molecular target: fIXa; experiment: cell-based or functional assay
[8] = molecular target: tPA; experiment: cell-based or functional assay
[9] = molecular target: fVIIa; experiment: cell-based or functional assay
[10] = molecular target: fXa; experiment: cell-based or functional assay
[11] = molecular target: plasmin; experiment: cell-based or functional assay
[12] = molecular target: urokinase; experiment: cell-based or functional assay
[13] = molecular target: bovine trypsin (bovine, UniProt P00760 24-246); experiment: cell-based or functional assay
[14] = molecular target: bovine chymotrypsin (bovine, UniProt P00766 1-245); experiment: cell-based or functional assay
[15] = molecular target: T1, human α-thrombin (recombinant); experiment: thrombin amidolytic assay with S2238; column headed Affinity (nM)
[16] = molecular target: T1, human α-thrombin (recombinant); experiment: cell-based or functional assay; remark: listed apart in the source
[17] = molecular target: T1, human α-thrombin (recombinant); experiment: cell-based or functional assay; remark: listed apart in the source
[18] = molecular target: T1, human α-thrombin (recombinant); experiment: thrombin amidolytic assay with S2238, tight-binding fit
Method: (§1) Each data point is the mean±S.D. of at least three independent experiments.
(§2) Thrombin amidolytic activity assays for all peptides were performed in 96-wells microtiter plates in 50 mM Tris buffer (pH 7.4) containing 100 mM NaCl and 1 mg/ml bovine serum albumin. […] The rates of formation of p-nitroaniline were followed by measuring the absorbance at 405 nm for 10 min with a Tecan InfinitePro M200 microplate reader from Tecan (Mannedorf, Switzerland). Dose-response curves were fitted using the GraphPad Prizm software (San Diego, Calif., USA) to calculate IC50 values and Hill coefficients. To measure the inhibitory constants, different concentrations of S2238 were used and the residual velocities were determined using the Morrison's tight binding equation. Inhibition of thrombin fibrinogenolytic activity of peptides were tested by measuring absorbance at 650 nm using a Sunrise microplate reader from Tecan (Mannedorf, Switzerland) as described previously [Koh C Y, et al., J Biol Chem 282: 29101-13 (2007)]. […] After different incubation times, reactions were quenched with 1% TFA (pH 1.8) and loaded onto a Jupiter Proteo column (4 μm, 90 Å, 100×1.0 mm) attached to a Dionex nano-HPLC system from Thermo Fisher Scientific (Waltham, Mass., USA) and eluted using an acetonitrile gradient with 0.05% TFA and 99.95% MilliQ water as eluent A and 0.05% TFA, 19.95% MilliQ water and 80% ACN as eluent B. Masses of all peaks were measured to identify cleavage products, which were subsequently quantified by integrating the peaks and calculating the area under the curves. To measure the effect of different pre-incubation times on the thrombin inhibitory activity, amidolytic assays were performed for various incubation times (up to 36 h).

[19] = molecular target: T1, human α-thrombin (recombinant); experiment: thrombin amidolytic assay with S2238, double reciprocal (Lineweaver-Burke) plot
Method: as §1
as §2, with “To measure the inhibitory constants, different concentrations of S2238 were used and the residual velocities were determined using the Morrison's tight binding equation.” left out, “To measure the effect of different pre-incubation times on the thrombin inhibitory activity, amidolytic assays were performed for various incubation times (up to 36 h).” left out

[20] = molecular target: T1, human α-thrombin (recombinant); experiment: cell-based or functional assay; remark: listed apart in the source
[21] = molecular target: T1, human α-thrombin (recombinant); experiment: thrombin amidolytic assay with S2238, tight-binding fit; remark: listed apart in the source
Method: A and C. […] B and D. Residual thrombin amidolytic activities in presence of UV003 and UV004 were measured at different concentrations of S2238 and their Kᵢ were determined.
Thrombin amidolytic activity assays for all peptides were performed in 96-wells microtiter plates in 50 mM Tris buffer (pH 7.4) containing 100 mM NaCl and 1 mg/ml bovine serum albumin. […] The rates of formation of p-nitroaniline were followed by measuring the absorbance at 405 nm for 10 min with a Tecan InfinitePro M200 microplate reader from Tecan (Mannedorf, Switzerland). Dose-response curves were fitted using the GraphPad Prizm software (San Diego, Calif., USA) to calculate IC50 values and Hill coefficients. To measure the inhibitory constants, different concentrations of S2238 were used and the residual velocities were determined using the Morrison's tight binding equation. Inhibition of thrombin fibrinogenolytic activity of peptides were tested by measuring absorbance at 650 nm using a Sunrise microplate reader from Tecan (Mannedorf, Switzerland) as described previously [Koh C Y, et al., J Biol Chem 282: 29101-13 (2007)].

[22] = molecular target: T1, human α-thrombin (recombinant); experiment: comparison of Ki values, thrombin amidolytic assay
[23] = molecular target: T1, human α-thrombin (recombinant); experiment: comparison of Ki values
[24] = molecular target: T1, human α-thrombin (recombinant); experiment: thrombin amidolytic assay with S2238, Morrison tight-binding fit, non-competitive

fVIIa, sequence (P08709 whole entry): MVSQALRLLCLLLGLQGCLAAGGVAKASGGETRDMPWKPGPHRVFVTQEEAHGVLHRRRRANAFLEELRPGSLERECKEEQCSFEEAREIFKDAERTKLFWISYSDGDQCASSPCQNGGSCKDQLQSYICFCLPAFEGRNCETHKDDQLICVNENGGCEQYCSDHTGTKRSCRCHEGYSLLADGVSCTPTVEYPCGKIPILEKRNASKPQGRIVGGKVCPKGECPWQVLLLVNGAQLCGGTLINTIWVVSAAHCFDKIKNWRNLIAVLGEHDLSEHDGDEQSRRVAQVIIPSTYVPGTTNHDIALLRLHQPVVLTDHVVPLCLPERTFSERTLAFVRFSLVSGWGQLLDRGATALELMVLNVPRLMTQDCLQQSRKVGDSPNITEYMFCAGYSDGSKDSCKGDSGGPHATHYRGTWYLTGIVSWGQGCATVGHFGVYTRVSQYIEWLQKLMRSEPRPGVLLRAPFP
bovine trypsin, sequence (P00760 24-246): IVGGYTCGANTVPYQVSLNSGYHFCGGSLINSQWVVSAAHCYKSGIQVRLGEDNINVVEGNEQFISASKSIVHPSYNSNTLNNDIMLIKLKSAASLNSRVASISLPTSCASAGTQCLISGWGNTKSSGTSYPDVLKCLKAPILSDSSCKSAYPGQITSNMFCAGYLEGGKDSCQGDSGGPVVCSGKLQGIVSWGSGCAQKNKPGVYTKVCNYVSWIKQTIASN
fXa, sequence (P00742 whole entry): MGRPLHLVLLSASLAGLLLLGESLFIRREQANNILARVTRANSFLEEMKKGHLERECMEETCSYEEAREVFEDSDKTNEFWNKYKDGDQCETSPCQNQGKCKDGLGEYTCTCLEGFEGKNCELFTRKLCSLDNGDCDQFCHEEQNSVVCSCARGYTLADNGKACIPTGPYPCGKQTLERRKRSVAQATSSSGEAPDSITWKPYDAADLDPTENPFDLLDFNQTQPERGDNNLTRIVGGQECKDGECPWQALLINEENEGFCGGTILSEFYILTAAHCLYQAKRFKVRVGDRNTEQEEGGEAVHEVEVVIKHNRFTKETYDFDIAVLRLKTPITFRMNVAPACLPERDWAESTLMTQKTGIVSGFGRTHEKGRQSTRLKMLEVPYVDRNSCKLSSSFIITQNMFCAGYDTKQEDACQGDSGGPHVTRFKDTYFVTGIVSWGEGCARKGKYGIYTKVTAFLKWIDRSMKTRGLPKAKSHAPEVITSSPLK

B1: avathrin (Amblyomma variegatum thrombin inhibitor) (peptide)
peptide: SGGHQTAVPKISKQGLGGDFEEIPSDEIIE
notes: Synthetic 30-residue peptide; one repeat of precursor protein BAD29729
For B1, the Ki [1] was 0.545 nM, the “percent inhibition of amidolytic activity at 100 µM avathrin” value (“percent inhibition” for short) [2] was less than 30% and the “percent inhibition” value [3] was less than 30%. For the same binder, the “IC50, inhibition of the amidolytic activity of clot-bound thrombin (S2238)” value [4] was 1740 nM, the “IC50, inhibition of thrombin amidolytic activity, 10 min pre-incubation” value (“IC50, inhibition … 10 min pre-incubation” below) [4] was 4.86 nM and the “percent of thrombin amidolytic activity inhibited at 24 h of incubation (avathrin in about 30-fold excess)” value [4] was greater than 45%. The “percent inhibition” value [5] was less than 30%, the “percent inhibition” value [6] was less than 30% and the “percent inhibition” value [7] was less than 30%. For the same binder, the “percent inhibition” value [8] was less than 30%, the “percent inhibition” value [9] was less than 30% and the “percent inhibition” value [10] was less than 30%. The “percent inhibition” value [11] was less than 30%, the “percent inhibition” value [12] was less than 30% and the “percent inhibition” value [13] was less than 30%. The “percent inhibition” value [14] was less than 30%, the Ki [15] was 0.545 nM and the “IC50, inhibition of thrombin amidolytic activity (S2238)” value [16] was 6.95 nM. The “IC50, inhibition of thrombin amidolytic activity” value [17] was 6.95 nM.

With SDGHDTAVPKISKQGLGGDFEEIPSDEIIE [avathrin G2D, Q5D] the “fold weaker inhibition against avathrin and QT26” value [4] was less than 2 fold, the “IC50, inhibition of thrombin amidolytic activity (S2238)” value [16] was 13 nM and the Ki [18] was 0.932 nM.

For SGGHQTAVPRISKQGLGGDFEEIPSDEIIE (also called K10R-avathrin) [avathrin K10R], the “fold gain in activity against avathrin” value [4] was 5 fold, the “IC50, inhibition of thrombin amidolytic activity (S2238)” value [16] was 1.15 nM and the Ki [18] was 0.172 nM.

SGGHQTAVPKIAKQGLGGDFEEIPSDEIIE [avathrin S12A] was tested, and the “fold change of IC50 against avathrin” value [4] was 20 fold, the “fold drop in potency against avathrin (amidolytic IC50)” value [4] was greater than 10 fold and the “IC50, inhibition of thrombin amidolytic activity (S2238)” value [16] was 101 nM. For the same binder, the Ki [19] was 6.08 nM.

For SGGHQTAVPKIHKQGLGGDFEEIPSDEIIE (also called 512H) [avathrin S12H], the “fold loss of potency against avathrin (amidolytic IC50)” value [4] was 2 fold, the “IC50, inhibition of thrombin amidolytic activity (S2238)” value [16] was 18.5 nM and the Ki [18] was 1.23 nM.

With SGGHQTAVP[β3hR]ISKQGLGGDFEEIPSDEIIE [β-avathrin] the “fold loss of potency against avathrin (amidolytic IC50)” value [4] was greater than 100 fold, the “IC50, inhibition of thrombin amidolytic activity (S2238)” value [16] was 332 nM and the Ki [19] was 32 nM.

B2: QT26 (peptide)
peptide: QTAVPKISKQGLGGDFEEIPSDEIIE
notes: Avathrin without its four N-terminal residues
In the case of B2, the Ki [1] is reported as 0.76 nM, the “IC50, inhibition … 10 min pre-incubation” value [4] is reported as 13.5 nM and the “IC50, inhibition of thrombin amidolytic activity (S2238)” value [16] is reported as 8.94 nM.

SDQGDVAIPKMYSTAPPGDFEEIPDDAIEE [UV003] was tested, and the “IC50, inhibition of thrombin amidolytic activity” value [20] was 0.6 nM and the Ki [21] was 0.00421 nM.

With SDEAVRAEPKMHKTAPPGDFEEIPDDAIEE [UV004] the “IC50, inhibition of thrombin amidolytic activity” value [20] was 0.46 nM and the Ki [21] was 0.00455 nM.

B3: UV007 (peptide)
peptide: CDEAVRAIPKMYSTAPPGDFEEIPDDAIEE
notes: Ultravariegin with Cys at the N-terminus
B3 was tested, and the “IC50, inhibition of thrombin amidolytic activity” value [20] was 0.601 nM and the Ki [21] was 0.00627 nM.

SDEAVRAIPKMYSTAPPGDFEEIPDDEIEE (Ultravariegin Ala27Glu) [UV012] was tested, and the “IC50, inhibition of thrombin amidolytic activity” value [20] was 0.94 nM.

SDEAVRAIPKMYSQAPPGDFEEIPDDAIEE (Ultravariegin Thr14Gln) [UV013] was tested, and the “IC50, inhibition of thrombin amidolytic activity” value [20] was 0.341 nM.

SDEAVRAIPKMYSTAPPGDFEEIPEEYLDDES [UV005] was tested, and the “fold drop in affinity against ultravariegin” value [22] was roughly 3.6 fold, the “IC50, inhibition of thrombin amidolytic activity” value [20] was 0.91 nM and the Ki [21] was 0.016 nM.

B4: UV011 (peptide)
peptide: MYSTAPPGDFEEIPDDAIEE
notes: also called C-terminal cleavage product of ultravariegin
In the case of B4, the “fold better Ki than the avathrin C-terminal cleavage product IS20” value [23] is reported as roughly 4 fold, the “fold better Ki than the variegin C-terminal cleavage product MH22” value [23] is reported as roughly 10 fold and the “IC50, inhibition of thrombin amidolytic activity” value [20] is reported as 1.66 nM. For the same binder, the Ki [21] was 1.39 nM.

In the case of SDQGDVAEPKMYSTAPPFDFEAIPEEYLDDES [Variegin YS], the “IC50, inhibition of thrombin amidolytic activity” value [20] is reported as 3.16 nM and the Ki [21] is reported as 0.671 nM.

For SDEAVRAIPKMYSTAPPGDFEEIPDDAIEECA (Ultravariegin with C-terminal CA) [UV008], the “IC50, inhibition of thrombin amidolytic activity” value [20] was 1.82 nM and the Ki [21] was 0.0786 nM.

For MYSTAPPGDFEEIPDDAIEEGCCC (UV011 with C-terminal GCCC) [UV014], the “IC50, inhibition of thrombin amidolytic activity” value [20] was 1.98 nM and the Ki [21] was 2.47 nM.

B5: IS20 (peptide)
peptide: ISKQGLGGDFEEIPSDEIIE
notes: Avathrin residues 11-30; also called C-terminal cleavage product of avathrin
With B5 the “IC50, inhibition of thrombin amidolytic activity, 0 min” value [4] was 12.4 nM, the “IC50, inhibition … 10 min pre-incubation” value [4] was 22.7 nM and the “IC50, inhibition of thrombin amidolytic activity (S2238)” value [16] was 12.2 nM. The Ki [24] was 5.76 nM.

In the case of SDEAVRAIPKMYSTAPPGDFEEIPDDAIEEGCCC (Ultravariegin with C-terminal GCCC) [UV015], the “IC50, inhibition of thrombin amidolytic activity” value [20] is reported as 1 nM and the Ki [21] is reported as 0.00852 nM.

In the case of SGGHQTAVPKISKQGPPGDFEEIPSDEIIE [avathrin L16P, G17P], the “fold drop in activity against avathrin (amidolytic IC50)” value [4] is reported as greater than 25 fold and the “IC50, inhibition of thrombin amidolytic activity (S2238)” value [16] is reported as 181 nM.
